Test results from paper PMC10238197, “Deafness‐Associated ADGRV1 Mutation Impairs USH2A Stability through Improper Phosphorylation of WHRN and WDSUB1 Recruitment” (Advanced Science, 2023).

B1: Flag-WHRN (wild type) [mouse] / Myc-USH2A (usherin, aa 4819-5193) [mouse] (parent complex)
chain 1: MNAQLDGLSVSSSSTGSLGSAAAAAGGGGGAGLRLLSANVRQLHQALTALLSEPEREQFTHCLNAYHARRNVFDLVRTLRVLLDSPVKRRLLPMLRLVIPRSDQLLFDQYTAEGLYLPATTPYRQPAWAAPDGAGPGEVRLVSLRRAKAHEGLGFSIRGGSEHGVGIYVSLVEPGSLAEKEGLRVGDQILRVNDKSLARVTHAEAVKALKGSKKLVLSVYSAGRIPGGYVTNHIYTWVDPQGRSTSPPSSLPQPHGSTLRQREDDRRSTLHLLQSGDEKKVNLVLGDGRSLGLTIRGGAEYGLGIYITGVDPGSEAESSGLKVGDQILEVNGRSFLNILHDEAVKLLKSSRHLILTVKDVGRLPHARTTVDQTKWIASSRIGESVANSAGFPGDHTEEGTSKPGFYKGPAGSQVTLSSLGNQTRALLDDQARHLLTEQERATMMYYLAQYRGGTISVEAMVMALFELLNTHAKFSLLSEVRSIISPQDLDRFDHLVLRREIESMKARQPPGPGVGDTYSMVSYSDTGSSTGSHGTSTTVSSARERLLWLIDLMENTLDLEGTGETTQGSTNALPDVSVDDVKSPSEDLPGIKPPPPPPPLAQGHDRLLGQPRKPGREDPAPLSSAAHSGIVFSAPRNRSPPPGTAPTPGPSSAQDSPSSPIYASISHANPSSRKPLDTHLALVNQHPIGPFPRVQSPPHLKSPPAETPGAGACLPPPSPSEHPDAVGANQHFVLVEVHRPDSEPDVNEVRALPQTRTASTLSQLSDSGQTLSEDSGVDAGETEASTSGRGRQTASAKNKNGKEQPRTERTAEGANKPPGLLEPTSTLVRVRKSAATLGIAIEGGANTRQPLPRIVTIQRGGSAHNCGQLKVGHVILEVNGQTLRGKEHKEAARIIAEAFKTKERDYIDFLVTEFNVML
chain 2: PPSGLSPPQVQTLGSRMASVHWTPPLLPNGVIHSYELQLQRACPPDSAPRCPPSHTERKYWGPGHRASLAGLQPNTAYGVQVVAYNEAGSTASGWTNFSTKKEMPQYQALFSVDSNASMVWVDWSGTFLLNGHLKEYVVTDGGRRVYSGLDTTLYIPRMVDKIFFFQVTCTTDIGSVKTPLVQYDAATGSGLVLTTPGEKKGAGTKSTEFYSELWFIMVMAVVGLILLAIFLSLILQRKIHKEPCIRERPPLVPLQKRMTPLSVYPPGETHVGLADTRLPRSGTPMSIRSSQSVSVLRIPSQSQLSHAYSQSSLHRSVSQLMDMADKKVVTEDSLWETIMGHSSGLYVDEEELMNAIKGFSSVTKEHTAFTDTHL

Variants of: B1
Test: co-immunoprecipitation (band intensity quantified); HEK293 cells; n = 3; parent: 1; read off a plot

Row | Variant | ratio to parent
1 | chain 1 S246E | ~1
2 | chain 1 S384E | ~1

The next lines start with the values.

Row | ratio to parent | Variant
3 | ~1 | chain 1 S37E
4 | ~1 | chain 1 S156E
5 | ~1 | chain 1 S85E
